How the values were obtained:
[1] = target: 구제역 바이러스 혈청형 O 배양액(cal1~cal4) (Foot-and-mouth disease virus serotype O); test: sandwich ELISA, cal1, 1E58 coat 1 ug/ml, 1E58-HRP 0.2 ug/ml, 450 nm
[2] = target: 구제역 바이러스 혈청형 O 배양액(cal1~cal4) (Foot-and-mouth disease virus serotype O); test: sandwich ELISA, cal1, 1E58 coat 1 ug/ml, 1E58-HRP 0.4 ug/ml, 450 nm
[3] = target: 구제역 바이러스 혈청형 O 배양액(cal1~cal4) (Foot-and-mouth disease virus serotype O); test: sandwich ELISA, cal1, 1E58 coat 2 ug/ml, 1E58-HRP 0.2 ug/ml, 450 nm
[4] = target: 구제역 바이러스 혈청형 O 배양액(cal1~cal4) (Foot-and-mouth disease virus serotype O); test: sandwich ELISA, cal1, 1E58 coat 4 ug/ml, 1E58-HRP 0.6 ug/ml, 450 nm
[5] = target: 구제역 바이러스 혈청형 O 배양액(cal1~cal4) (Foot-and-mouth disease virus serotype O); test: sandwich ELISA, cal1, 1E58 coat 8 ug/ml, 1E58-HRP 0.2 ug/ml, 450 nm
[6] = target: 구제역 바이러스 혈청형 O 배양액(cal1~cal4) (Foot-and-mouth disease virus serotype O); test: sandwich ELISA, cal1, 1E58 coat 8 ug/ml, 1E58-HRP 0.6 ug/ml, 450 nm
[7] = target: 구제역 바이러스 혈청형 O 배양액(cal1~cal4) (Foot-and-mouth disease virus serotype O); test: sandwich ELISA, cal2, 1E58 coat 1 ug/ml, 1E58-HRP 0.6 ug/ml, 450 nm
[8] = target: 구제역 바이러스 혈청형 O 배양액(cal1~cal4) (Foot-and-mouth disease virus serotype O); test: sandwich ELISA, cal2, 1E58 coat 1 ug/ml, 1E58-HRP 0.8 ug/ml, 450 nm
[9] = target: 구제역 바이러스 혈청형 O 배양액(cal1~cal4) (Foot-and-mouth disease virus serotype O); test: sandwich ELISA, cal2, 1E58 coat 2 ug/ml, 1E58-HRP 0.2 ug/ml, 450 nm
[10] = target: 구제역 바이러스 혈청형 O 배양액(cal1~cal4) (Foot-and-mouth disease virus serotype O); test: sandwich ELISA, cal2, 1E58 coat 2 ug/ml, 1E58-HRP 0.6 ug/ml, 450 nm
[11] = target: 구제역 바이러스 혈청형 O 배양액(cal1~cal4) (Foot-and-mouth disease virus serotype O); test: sandwich ELISA, cal2, 1E58 coat 2 ug/ml, 1E58-HRP 0.8 ug/ml, 450 nm
[12] = target: 구제역 바이러스 혈청형 O 배양액(cal1~cal4) (Foot-and-mouth disease virus serotype O); test: sandwich ELISA, cal2, 1E58 coat 4 ug/ml, 1E58-HRP 0.6 ug/ml, 450 nm
[13] = target: 구제역 바이러스 혈청형 O 배양액(cal1~cal4) (Foot-and-mouth disease virus serotype O); test: sandwich ELISA, cal2, 1E58 coat 8 ug/ml, 1E58-HRP 0.8 ug/ml, 450 nm
[14] = target: 구제역 바이러스 혈청형 O 배양액(cal1~cal4) (Foot-and-mouth disease virus serotype O); test: sandwich ELISA, cal3, 1E58 coat 1 ug/ml, 1E58-HRP 0.2 ug/ml, 450 nm
[15] = target: 구제역 바이러스 혈청형 O 배양액(cal1~cal4) (Foot-and-mouth disease virus serotype O); test: sandwich ELISA, cal3, 1E58 coat 2 ug/ml, 1E58-HRP 0.6 ug/ml, 450 nm
[16] = target: 구제역 바이러스 혈청형 O 배양액(cal1~cal4) (Foot-and-mouth disease virus serotype O); test: sandwich ELISA, cal3, 1E58 coat 2 ug/ml, 1E58-HRP 0.8 ug/ml, 450 nm
[17] = target: 구제역 바이러스 혈청형 O 배양액(cal1~cal4) (Foot-and-mouth disease virus serotype O); test: sandwich ELISA, cal3, 1E58 coat 4 ug/ml, 1E58-HRP 0.6 ug/ml, 450 nm
[18] = target: 구제역 바이러스 혈청형 O 배양액(cal1~cal4) (Foot-and-mouth disease virus serotype O); test: sandwich ELISA, cal4, 1E58 coat 1 ug/ml, 1E58-HRP 0.2 ug/ml, 450 nm
[19] = target: 구제역 바이러스 혈청형 O 배양액(cal1~cal4) (Foot-and-mouth disease virus serotype O); test: sandwich ELISA, cal4, 1E58 coat 4 ug/ml, 1E58-HRP 0.4 ug/ml, 450 nm
[20] = target: 구제역 바이러스 혈청형 O 배양액(cal1~cal4) (Foot-and-mouth disease virus serotype O); test: sandwich ELISA, cal4, 1E58 coat 4 ug/ml, 1E58-HRP 0.6 ug/ml, 450 nm
[21] = target: FMDV 혈청형 A Iran05 (Foot-and-mouth disease virus serotype A); test: sandwich ELISA, 1E58 coat 4 ug/ml, 1E58-HRP 0.3 ug/ml, virus culture fluid
[22] = target: FMDV 혈청형 A Malaysia97 (Foot-and-mouth disease virus serotype A); test: as above
[23] = target: FMDV 혈청형 A 포천주 (Foot-and-mouth disease virus serotype A); test: as above
[24] = target: FMDV 혈청형 Asia1 MOG/05 (Foot-and-mouth disease virus serotype Asia1); test: as above
[25] = target: FMDV 혈청형 Asia1 Shamir (Foot-and-mouth disease virus serotype Asia1); test: as above
[26] = target: FMDV 혈청형 O Primorsky (Foot-and-mouth disease virus serotype O); test: as above
[27] = target: FMDV 혈청형 O 정읍 (Foot-and-mouth disease virus serotype O); test: as above
[28] = target: FMDV 혈청형 SAT1 SAT1/BOT/1/68 (Foot-and-mouth disease virus serotype SAT1); test: as above
[29] = target: FMDV 혈청형 SAT3 SAT3/ZIM/4/81 (Foot-and-mouth disease virus serotype SAT3); test: as above

B1: 단클론항체 1E58 (antibody, V domains shown)
VH: EFQLQQSRPELAKPGASVKISCKTSGHTFTTYTMHWVKQSHVKSLEWIGCFNPNNGGATYNQKFKGKATLTMDKSSNTAYVEVRSLTSDDSAVYYCAYGNYVNFDYWGQGTTLTVSS
VL: DIVLTQSPASLAVSLGQRATISYRASKSVSTSGYSYMHWNQQKPGQPPRLLIYLVSNLESGVPARFSGSGSGTDFTLNIHPVEEEDAATYYCQHIRELTRSEGGPSWKN
B1 showed an O.D [1] of 1.81 O.D, an O.D [2] of 2.43 O.D and an O.D [3] of 3.12 O.D. The O.D [4] was 4 O.D, the O.D [5] was 2.35 O.D and the O.D [6] was 3.27 O.D. For the same binder, the O.D [7] was 1.55 O.D, the O.D [8] was 1.97 O.D and the O.D [9] was 1.8 O.D. It also gave an O.D [10] of 3.42 O.D, an O.D [11] of 3.67 O.D and an O.D [12] of 3.47 O.D. For the same binder, the O.D [13] was 4 O.D, the O.D [14] was 0.54 O.D and the O.D [15] was 1.89 O.D. The O.D [16] was 2.08 O.D, the O.D [17] was 2.15 O.D and the O.D [18] was 0.5 O.D. The O.D [19] was 0.88 O.D, the O.D [20] was 1.11 O.D and the O.D (450nm) [21] was 4 O.D. It also gave an O.D (450nm) [22] of 4 O.D, an O.D (450nm) [23] of 3.87 O.D and an O.D (450nm) [24] of 3.85 O.D. For the same binder, the O.D (450nm) [25] was 4 O.D, the O.D (450nm) [26] was 4 O.D and the O.D (450nm) [27] was 3.86 O.D. For the same binder, the O.D (450nm) [28] was 2.22 O.D and the O.D (450nm) [29] was 3.6 O.D.
